From US20190263882A1
Where two headings read alike, the source gives them in different places.

What was measured:
RSV F protein = RSV F protein (UniProt P03420); experiment: ELISA, 100 ng/well RSV F protein coated, HRP anti-human IgG (Fc specific), QuantaBlu fluorescence (10 min)
[1] = target: T1, hLGR7 (UL-hLGR7-Cre-Luc reporter cell line) (human ('hLGR7')) (UniProt Q9HBX9); experiment: cell-based or functional assay
T1 sequence (looked up): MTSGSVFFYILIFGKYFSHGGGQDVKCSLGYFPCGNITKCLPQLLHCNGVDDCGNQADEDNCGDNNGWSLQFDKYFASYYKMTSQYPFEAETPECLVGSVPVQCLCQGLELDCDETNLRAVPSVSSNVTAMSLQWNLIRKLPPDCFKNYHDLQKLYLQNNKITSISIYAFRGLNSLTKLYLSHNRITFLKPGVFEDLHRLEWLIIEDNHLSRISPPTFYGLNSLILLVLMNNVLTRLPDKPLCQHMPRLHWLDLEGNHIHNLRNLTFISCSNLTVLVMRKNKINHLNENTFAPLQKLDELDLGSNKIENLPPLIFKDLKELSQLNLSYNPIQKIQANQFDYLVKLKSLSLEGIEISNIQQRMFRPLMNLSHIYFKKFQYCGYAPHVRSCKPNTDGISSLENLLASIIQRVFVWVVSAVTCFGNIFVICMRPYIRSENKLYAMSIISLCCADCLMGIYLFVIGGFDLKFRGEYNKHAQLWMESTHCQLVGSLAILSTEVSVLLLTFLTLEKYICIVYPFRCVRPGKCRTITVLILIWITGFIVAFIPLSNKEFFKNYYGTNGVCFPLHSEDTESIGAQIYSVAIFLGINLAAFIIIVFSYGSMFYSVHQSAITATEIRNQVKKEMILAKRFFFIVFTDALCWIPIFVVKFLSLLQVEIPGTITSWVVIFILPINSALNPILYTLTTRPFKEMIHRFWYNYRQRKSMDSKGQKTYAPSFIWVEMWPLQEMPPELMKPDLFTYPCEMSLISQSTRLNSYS

relaxin receptor (LGR7) [2] = target: T2, relaxin receptor (LGR7); experiment: cell-based or functional assay
T2 sequence (Q9HBX9 whole entry, species assumed, looked up): T1 sequence (looked up)

relaxin receptor (LGR7) [3] = target: T2, relaxin receptor (LGR7); experiment: cell-based or functional assay; remark: listed apart in the source

Chain of RSV F protein (P03420 26-524): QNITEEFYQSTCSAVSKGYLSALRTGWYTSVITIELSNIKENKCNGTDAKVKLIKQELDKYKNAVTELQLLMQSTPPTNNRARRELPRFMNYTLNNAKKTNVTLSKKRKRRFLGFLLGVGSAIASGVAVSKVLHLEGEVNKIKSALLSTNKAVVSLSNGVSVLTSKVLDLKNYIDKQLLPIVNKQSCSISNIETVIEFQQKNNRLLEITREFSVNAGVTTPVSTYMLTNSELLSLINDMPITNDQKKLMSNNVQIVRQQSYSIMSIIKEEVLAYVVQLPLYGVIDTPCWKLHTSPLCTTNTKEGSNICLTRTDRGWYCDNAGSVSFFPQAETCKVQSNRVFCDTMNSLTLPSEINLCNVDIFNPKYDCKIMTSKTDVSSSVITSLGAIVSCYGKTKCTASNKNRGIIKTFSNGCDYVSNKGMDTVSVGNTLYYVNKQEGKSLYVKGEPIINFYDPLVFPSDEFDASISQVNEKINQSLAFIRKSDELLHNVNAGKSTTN

Substance | Kd (RSV F protein) | EC50, UL-hLGR7-Cre-Luc reporter cell line [1] | SA [1] | EC50, CRE-luciferase reporter assay (relaxin receptor (LGR7) [2]) | EC50, CRE-luciferase reporter assay (relaxin receptor (LGR7) [3])
Herceptin (antibody) | 1350 nM |  |  |  | 
relaxin-2 peptide (from UniProt P04090 25-185) (ligand) |  | 0.02 nM | 1000 units/µg | 0.0223 nM | 0.022 nM
